Earlier results, collected in patent US20080070838A1, “Growth Factor Treatment for Asthma” (University of Southampton, priority 2004, published 2008).

Tested on: airway fibrosis
Conditions: mouse, in vivo

TGFα: structural homologue of EGF and a ligand for the EGF receptor
airway fibrosis: marked airway fibrosis
